Results: paper PMC9741643

Legend:
[1] = molecular target: mouse IgG1 kappa anti-CD3 antibody (clone UTH1, BD bioscience 555329) (mouse); assay: cross-linking; photo-crosslinking through BpA in PpL: 50-100 uM PpL construct with 1-4 uM antibody in PBS pH7.6, 365 nm light (6.4 mW/cm^2) up to 1 h; products reduced with DTT and read on SDS-PAGE
[2] = molecular target: Cetuximab (Selleck Chemicals A2000); assay: as above

For “PpL-R33BpA (PpL-linker-FLAG construct with BpA at R33) (designed binder)”, the yield of conjugated to un-conjugated light chain (by gel intensity) [1] was 30%.

With “PpL-R33BpA with linker arm and Sortase A recognition site (PpL with the sortase site only) (designed binder)” the photoconjugation yield (by gel) [2] was 75%.
